Experimental findings from article PMC8616923, “Initiation of cytosolic plant purine nucleotide catabolism involves a monospecific xanthosine monophosphate phosphatase” (Nature Communications, 2021) are described below.

Series [1] has as its target T1, XMPP (XMPP-HAStrep; SDTL1) (Arabidopsis thaliana, UniProt F4ISS8).
T1 construct: gene At2g32150; monomer
T1 sequence (F4ISS8 1-263): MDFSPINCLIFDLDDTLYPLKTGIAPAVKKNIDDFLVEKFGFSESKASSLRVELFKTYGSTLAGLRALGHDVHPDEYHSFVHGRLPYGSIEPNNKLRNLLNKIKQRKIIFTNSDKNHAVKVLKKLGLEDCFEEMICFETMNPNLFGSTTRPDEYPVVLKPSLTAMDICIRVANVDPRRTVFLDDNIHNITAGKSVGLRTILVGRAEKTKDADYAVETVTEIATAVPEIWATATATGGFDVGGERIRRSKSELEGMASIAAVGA
Put plainly: inhibition of XMP hydrolysis (phosphate assay). It is filed as biochemical. The note with it: 10 μM XMP as substrate; 22 °C.

Series [2] deals with T2, XMPP (C-terminal His-tagged full-length XMPP) (Arabidopsis thaliana, UniProt F4ISS8).
T2 construct: gene At2g32150; full-length (13 residues beyond Ser250), C-terminal His tag, expressed in E. coli, HisTrap purified; monomer
T2 sequence (F4ISS8 1-263): T1 sequence (F4ISS8 1-263)
The experiment in a line: EnzChek phosphate assay (MESG / purine nucleoside phosphorylase), initial rates. The class given is biochemical. The note with it: 30 °C, pH 7.5 (50 mM Tris), 1.25 mM MgCl2.

In series [3] the target is T2, XMPP (C-terminal His-tagged full-length XMPP). The description is as above. It is filed as biochemical. The note with it: 30 °C, pH 7.5 (50 mM Tris), 1.25 mM MgCl2. This is another data set of the same source.
Substrate in the series “purified protein”: O=c1[nH]c(=O)c2ncn([C@@H]3O[C@H](COP(=O)(O)O)[C@@H](O)[C@H]3O)c2[nH]1
Put plainly: purified protein. The class given is biochemical, Arabidopsis thaliana. The note with it: 22 °C.

Substrate in series [4]: O=c1[nH]c(=O)c2ncn([C@@H]3O[C@H](COP(=O)(O)O)[C@@H](O)[C@H]3O)c2[nH]1
Put plainly: EnzChek phosphate assay (MESG / purine nucleoside phosphorylase), initial rates. The note with it: 30 °C, pH 7.5 (50 mM Tris), 1.25 mM MgCl2. It is filed as biochemical, Arabidopsis thaliana. On the procedure:
EnzChek phosphate assay (MESG / purine nucleoside phosphorylase), initial rates on XMPP (C-terminal His-tagged full-length XMPP) | enzymatic activities and kinetic constants of XMPP variants were determined

Turning to `O=c1[nH]c(=O)c2ncn([C@@H]3O[C@H](CO)[C@@H](O)[C@H]3O)c2[nH]1` [xanthosine], in series [1], the inhibition entry was “For XMPP, we confirmed an inhibition by xanthosine”. In the case of `O=c1[nH]c(=O)c2ncn([C@@H]3O[C@H](COP(=O)(O)O)[C@@H](O)[C@H]3O)c2[nH]1` [XMP], the KM entry in series [2] was “direct and indirect hydrogen bonds to Thr61, Lys29, and Arg51”; in series [3], “hydrophobic residues Val28, Ile31, and Phe55 that shape the xanthine-binding pocket”.

B1: XMPP (XMPP-HAStrep; SDTL1) (Arabidopsis thaliana) (protein)
chain: T1 sequence (F4ISS8 1-263)
notes: monomer
For the molecule B1, in the series “purified protein”, the Km (commonly the concentration of substrate that gives half-maximal velocity) came out at 3.9 ± 0.2 µM and the kcat (as a rule, the maximal rate divided by the concentration of active sites) was found to be 9.2 ± 0.1 s⁻¹.

B2: XMPP (C-terminal His-tagged full-length XMPP) (Arabidopsis thaliana) (protein)
chain: T1 sequence (F4ISS8 1-263)
notes: full-length (13 residues beyond Ser250), C-terminal His tag, expressed in E. coli, HisTrap purified; monomer
For B2, in series [4], the Michaelis constant (Km) is reported as 8.1(0.8) μM and the turnover number (kcat) is 16.5(0.33) s^-1.
